Experimental findings from the supplement of paper PMC9112550, “Optimization of the antimicrobial peptide Bac7 by deep mutational scanning” (BMC Biology, 2022) are described below.
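Note: peptides expressed intracellularly from a pBAD plasmid library in pooled LB shake-flask culture, induced with 0.3% L-arabinose, DNA abundance read by NGS, three biological replicates, DESeq2 with apeglm shrinkage.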

The test system of the data set is Escherichia coli TOP10. Briefly: shrunken log2 fold change of peptide-encoding DNA abundance (4.5 h post-induction vs induction); higher = less antimicrobial activity (less host growth inhibition). The conditions noted are these: time post-induction: 4.5 h; library: site-saturation at positions 5, 18, 19, 20.
As to RRIRLRPPRLPRPRPRPGWHPRP, the “shrunken log2 fold change” value came out at 0.13.
RRIRFRPPRLPRPRPRPFVKPRP: the “shrunken log2 fold change” value was -0.457.
For the sequence RRIRYRPPRLPRPRPRPVPPPRP, the “shrunken log2 fold change” value came out at 0.208.
As to RRIRWRPPRLPRPRPRPAFPPRP, the “shrunken log2 fold change” value was 0.446.
Regarding RRIRMRPPRLPRPRPRPGNCPRP, the “shrunken log2 fold change” value is 0.0879.
Then RRIRPRPPRLPRPRPRPVFGPRP, with 0.206.
RRIRCRPPRLPRPRPRPLQLPRP: the “shrunken log2 fold change” value was -0.546.
On to RRIRKRPPRLPRPRPRPSADPRP, for which the “shrunken log2 fold change” value stood at 0.027.
Consider RRIRERPPRLPRPRPRPCQWPRP, for which the “shrunken log2 fold change” value is -0.017.
Turning to RRIRRRPPRLPRPRPRPFCEPRP, the “shrunken log2 fold change” value is 0.0918.
As to RRIRQRPPRLPRPRPRPPEWPRP, the “shrunken log2 fold change” value is -0.0462.
In the case of RRIRQRPPRLPRPRPRPKLDPRP, the “shrunken log2 fold change” value amounted to 0.168.
In the case of RRIRYRPPRLPRPRPRPQTFPRP, the “shrunken log2 fold change” value is -0.459.
RRIRARPPRLPRPRPRPKTNPRP: the “shrunken log2 fold change” value worked out at 0.436.
RRIRDRPPRLPRPRPRPCSYPRP: the “shrunken log2 fold change” value was -0.138.
Turning to RRIRVRPPRLPRPRPRPHFCPRP, the “shrunken log2 fold change” value is -0.0628.
Turning to RRIRARPPRLPRPRPRPLNWPRP, the “shrunken log2 fold change” value stood at 0.245.
Turning to RRIRYRPPRLPRPRPRPHSSPRP, the “shrunken log2 fold change” value is -0.207.
In the case of RRIRWRPPRLPRPRPRPTSQPRP, the “shrunken log2 fold change” value amounted to 0.229.
As for RRIRNRPPRLPRPRPRPIRLPRP, the “shrunken log2 fold change” value is -0.0969.
With RRIRGRPPRLPRPRPRPQMSPRP, the “shrunken log2 fold change” value turned out to be 0.395.
Take RRIRWRPPRLPRPRPRPTKTPRP: the “shrunken log2 fold change” value amounted to 0.0481.
With RRIRRRPPRLPRPRPRPLWVPRP, the “shrunken log2 fold change” value worked out at 0.382.
Take RRIRIRPPRLPRPRPRPHGSPRP: the “shrunken log2 fold change” value was -0.261.
The figure for RRIRNRPPRLPRPRPRPPCTPRP is -0.234; for RRIRWRPPRLPRPRPRPCCMPRP it is -0.196; for RRIRQRPPRLPRPRPRPAPKPRP it is 0.148.
On to RRIRIRPPRLPRPRPRPYEPPRP, for which the “shrunken log2 fold change” value was -0.21.
Then RRIRTRPPRLPRPRPRPVHHPRP, with -0.321; and RRIRCRPPRLPRPRPRPRYCPRP, with -0.654.
With RRIRFRPPRLPRPRPRPNGRPRP, the “shrunken log2 fold change” value is -0.123.
Regarding RRIRGRPPRLPRPRPRPVGFPRP, the “shrunken log2 fold change” value came to 0.984.
Turning to RRIRLRPPRLPRPRPRPHDKPRP, the “shrunken log2 fold change” value amounted to 0.0709.
The figure for RRIRWRPPRLPRPRPRPERWPRP is 1.14.
Turning to RRIRWRPPRLPRPRPRPAMQPRP, the “shrunken log2 fold change” value was 0.298.
Regarding RRIRFRPPRLPRPRPRPSMFPRP, the “shrunken log2 fold change” value is -0.505.
As for RRIRHRPPRLPRPRPRPFHTPRP, the “shrunken log2 fold change” value is -0.0888.
The figure for RRIRLRPPRLPRPRPRPCQRPRP is -0.00788; for RRIRERPPRLPRPRPRPNMHPRP it is -0.619.
With RRIRIRPPRLPRPRPRPECAPRP, the “shrunken log2 fold change” value was -0.0969.
Regarding RRIRARPPRLPRPRPRPQADPRP, the “shrunken log2 fold change” value was -0.119.
For the sequence RRIRCRPPRLPRPRPRPFINPRP, the “shrunken log2 fold change” value was -1.1.
Consider RRIRARPPRLPRPRPRPCNRPRP, for which the “shrunken log2 fold change” value amounted to 0.0805.
In the case of RRIRCRPPRLPRPRPRPQSAPRP, the “shrunken log2 fold change” value was -0.0724.
As to RRIRFRPPRLPRPRPRPQQGPRP, the “shrunken log2 fold change” value is -0.0566.
Regarding RRIRYRPPRLPRPRPRPCTQPRP, the “shrunken log2 fold change” value is -1.32.
The figure for RRIRNRPPRLPRPRPRPHDLPRP is 0.0667; for RRIRDRPPRLPRPRPRPGTSPRP it is -0.0025.
In the case of RRIRHRPPRLPRPRPRPHIAPRP, the “shrunken log2 fold change” value is -0.0808.
Then RRIRKRPPRLPRPRPRPESPPRP, with 0.188.
Consider RRIRCRPPRLPRPRPRPDASPRP, for which the “shrunken log2 fold change” value turned out to be 0.27.
Turning to RRIRLRPPRLPRPRPRPMWNPRP, the “shrunken log2 fold change” value was -0.299.
As to RRIRMRPPRLPRPRPRPVQQPRP, the “shrunken log2 fold change” value worked out at 0.113.
In the case of RRIRSRPPRLPRPRPRPPWSPRP, the “shrunken log2 fold change” value came out at 0.25.
The figure for RRIRGRPPRLPRPRPRPIFGPRP is -0.0743.
For the sequence RRIRGRPPRLPRPRPRPYGNPRP, the “shrunken log2 fold change” value was -0.102.
Then RRIRLRPPRLPRPRPRPWCTPRP, with 0.0254; and RRIRSRPPRLPRPRPRPKDDPRP, with 0.0557; and RRIRNRPPRLPRPRPRPARWPRP, with 0.531.
Then RRIRCRPPRLPRPRPRPAVKPRP, with -0.132; and RRIRFRPPRLPRPRPRPKEKPRP, with -0.0715; and RRIRERPPRLPRPRPRPRYNPRP, with -0.672.
For RRIRFRPPRLPRPRPRPYIWPRP, the “shrunken log2 fold change” value was -0.425.
For the sequence RRIRIRPPRLPRPRPRPLFGPRP, the “shrunken log2 fold change” value is -0.102.
RRIRHRPPRLPRPRPRPFCGPRP: the “shrunken log2 fold change” value stood at 0.336.
As to RRIRQRPPRLPRPRPRPKPSPRP, the “shrunken log2 fold change” value amounted to 0.159.
On to RRIRPRPPRLPRPRPRPCKPPRP, for which the “shrunken log2 fold change” value is -0.136.
In the case of RRIRMRPPRLPRPRPRPNPEPRP, the “shrunken log2 fold change” value worked out at 0.406.
Turning to RRIRGRPPRLPRPRPRPYQAPRP, the “shrunken log2 fold change” value is -0.119.
As to RRIRWRPPRLPRPRPRPEHWPRP, the “shrunken log2 fold change” value was determined as 0.83.
For RRIRLRPPRLPRPRPRPTSSPRP, the “shrunken log2 fold change” value was -0.178.
As for RRIRRRPPRLPRPRPRPYHGPRP, the “shrunken log2 fold change” value was -0.169.
The figure for RRIRIRPPRLPRPRPRPPHGPRP is -0.0482.
As to RRIRLRPPRLPRPRPRPMGAPRP, the “shrunken log2 fold change” value came out at 0.316.
Consider RRIRKRPPRLPRPRPRPGLSPRP, for which the “shrunken log2 fold change” value came to 0.0644.
Take RRIRWRPPRLPRPRPRPNPPPRP: the “shrunken log2 fold change” value turned out to be 0.206.
Regarding RRIRARPPRLPRPRPRPPCIPRP, the “shrunken log2 fold change” value is -0.111.
As to RRIRQRPPRLPRPRPRPKKSPRP, the “shrunken log2 fold change” value was -0.197.
Then RRIRIRPPRLPRPRPRPTRWPRP, with 0.242; and RRIRIRPPRLPRPRPRPYNWPRP, with -0.577.
For the sequence RRIRKRPPRLPRPRPRPTWHPRP, the “shrunken log2 fold change” value is 0.371.
With RRIRNRPPRLPRPRPRPNVAPRP, the “shrunken log2 fold change” value stood at 3.26.
As to RRIRRRPPRLPRPRPRPERTPRP, the “shrunken log2 fold change” value was 0.232.
The figure for RRIRPRPPRLPRPRPRPREYPRP is 0.115; for RRIRFRPPRLPRPRPRPYDTPRP it is -0.106.
As to RRIRIRPPRLPRPRPRPMDDPRP, the “shrunken log2 fold change” value was determined as 0.0135.
With RRIRGRPPRLPRPRPRPSHHPRP, the “shrunken log2 fold change” value is -0.286.
As to RRIRSRPPRLPRPRPRPLSAPRP, the “shrunken log2 fold change” value worked out at 0.234.
As to RRIRDRPPRLPRPRPRPRKHPRP, the “shrunken log2 fold change” value was -0.134.
As for RRIRNRPPRLPRPRPRPDEEPRP, the “shrunken log2 fold change” value was determined as 0.509.
As to RRIRSRPPRLPRPRPRPACSPRP, the “shrunken log2 fold change” value was determined as 0.147.
